These results are taken from the Immune Epitope Database (IEDB).

In one assay the target is HLA-B*08:01. The assay can be described thus: IEDB peptide-MHC binding, purified MHC/competitive/radioactivity; filed as Kd, often an IC50 or EC50 that approximates it; ≥ and ≤ were set here for values at or beyond the usual limits of such assays.
The target in another assay is HLA-A*01:01. Described as above. Particulars: source organism: SARS coronavirus Tor2.
The next assay has as its target HLA-A*23:01. The assay is described as above. The note with it: source organism: SARS coronavirus Tor2.
The next assay concerns the target HLA-A*24:02. The description is as above. The note with it: source organism: SARS coronavirus Tor2.
A further assay deals with HLA-A*26:01. The assay is described as above. The note with it: source organism: SARS coronavirus Tor2.
Another assay addresses HLA-A*29:02. The assay is described as above. The note with it: source organism: SARS coronavirus Tor2.
A further assay addresses HLA-A*30:02. Described as above. Particulars: source organism: SARS coronavirus Tor2.
In another assay the target is HLA-A*24:03. The assay can be described thus: IEDB peptide-MHC binding, purified MHC/direct/fluorescence; filed as Kd, often an IC50 or EC50 that approximates it; ≥ and ≤ were set here for values at or beyond the usual limits of such assays.
The target in the next assay is HLA-A*03:01. Put plainly: IEDB peptide-MHC binding, purified MHC/competitive/radioactivity; filed as Kd, often an IC50 or EC50 that approximates it; ≥ and ≤ were set here for values at or beyond the usual limits of such assays. The note with it: source organism: SARS coronavirus Tor2.
The next assay deals with HLA-A*11:01. Described as above. The note with it: source organism: SARS coronavirus Tor2.
For a further assay, the target named is HLA-A*31:01. The assay is described as above. Particulars: source organism: SARS coronavirus Tor2.
Another assay has as its target HLA-A*33:01. Described as above. The note with it: source organism: SARS coronavirus Tor2.
Another assay has as its target HLA-A*68:01. The assay is described as above. The note with it: source organism: SARS coronavirus Tor2.
The next assay has as its target HLA-A*02:02. The assay is described as above. The note with it: source organism: SARS coronavirus Tor2.
Another assay addresses HLA-A*02:03. Described as above. Particulars: source organism: SARS coronavirus Tor2.
For another assay, the target named is HLA-A*02:06. The assay is described as above. The note with it: source organism: SARS coronavirus Tor2.
Setting [1] is: source organism: Vaccinia virus WR.
Where [2] appears, read: source organism: Dengue virus 2 Jamaica/1409/1983.
Where [3] appears, read: source organism: Dengue virus 4 Philippines/H241/1956.

Regarding FVMFGFCYL, in the assay with HLA-B*08:01 (setting [1]), the Kd came out at 865 nM.
For the sequence LTIPPTAGIL, in the assay with HLA-B*08:01 (setting [2]), the Kd was 1100 nM.
In the case of HAQRIETWIL, the Kd with HLA-B*08:01 (source organism: Dengue virus 2 Peru/IQT2913/1996) amounted to 1150 nM.
Turning to VYDPLQPEL, the Kd was ≥ 78100 nM with HLA-A*01:01; 12800 nM in the assay with HLA-A*23:01; ≥ 44800 nM in the assay with HLA-A*24:02; ≥ 77900 nM with HLA-A*26:01; 8.42 nM with HLA-A*29:02; 302 nM in the assay with HLA-A*30:02.
For the sequence IQPQWIAASI, in the assay with HLA-B*08:01 (setting [3]), the dissociation constant Kd turned out to be 858 nM.
Consider KYLPNGDYI, for which the Kd with HLA-A*24:03 (source organism: Vibrio parahaemolyticus) was 12.9 nM.
On to QLAKRFSRG, for which, in the assay with HLA-B*08:01 (source organism: Dengue virus 3 Singapore/8120/1995), the Kd amounted to 1280 nM.
LHRMDLGVPL: the Kd in the assay with HLA-B*08:01 (setting [3]) was 1010 nM.
Regarding MLKRERNRV, the dissociation constant (Kd) with HLA-B*08:01 (setting [2]) amounted to 52.9 nM.
As for LYIIKLVFL, the equilibrium dissociation constant (Kd) in the assay with HLA-A*01:01 was 2150 nM; with HLA-A*23:01 it was 0.179 nM; in the assay with HLA-A*24:02 it was 0.268 nM; with HLA-A*26:01 it was ≥ 21000 nM; in the assay with HLA-A*29:02, 3110 nM; with HLA-A*30:02, 13500 nM.
As to NKDGFLYVY, the equilibrium dissociation constant (Kd) in the assay with HLA-A*01:01 is 13900 nM; with HLA-A*23:01, ≥ 77800 nM; in the assay with HLA-A*24:02, ≥ 77600 nM; with HLA-A*26:01 it was 14300 nM; in the assay with HLA-A*29:02, 1130 nM; in the assay with HLA-A*30:02 it was 2830 nM.
As for IYNEKVAGF, the Kd in the assay with HLA-A*01:01 is ≥ 78100 nM; in the assay with HLA-A*23:01, 19700 nM; with HLA-A*24:02, ≥ 26600 nM; with HLA-A*26:01 it was 3550 nM; in the assay with HLA-A*29:02, 19800 nM; with HLA-A*30:02, ≥ 22700 nM.
Take ILCVPNAVIL: the Kd with HLA-B*08:01 (setting [2]) amounted to 5540 nM.
NTCDGNTFTY: the Kd is ≥ 89300 nM in the assay with HLA-A*01:01; 2.25 nM with HLA-A*03:01; 23.6 nM with HLA-A*11:01; 5340 nM with HLA-A*23:01; 5750 nM with HLA-A*24:02; ≥ 77900 nM in the assay with HLA-A*26:01. Besides, the Kd in the assay with HLA-A*29:02 was ≥ 26000 nM; with HLA-A*30:02, ≥ 125000 nM; with HLA-A*31:01, 33.4 nM; in the assay with HLA-A*33:01 it was 13200 nM; with HLA-A*68:01, 1060 nM.
As for TFHLSIPNF, the dissociation constant Kd with HLA-A*24:03 (source organism: Mammarenavirus lassaense) worked out at 34.5 nM.
In the case of HYVRITGLY, the Kd with HLA-A*01:01 was 18200 nM; with HLA-A*23:01, 7530 nM; with HLA-A*24:02, ≥ 22700 nM; in the assay with HLA-A*26:01 it was 149 nM; in the assay with HLA-A*29:02, 111 nM; in the assay with HLA-A*30:02, ≥ 27600 nM.
For RKLTSRETAL, the Kd with HLA-B*08:01 (setting [3]) is 178 nM.
With HRRDLRLASM, the Kd with HLA-B*08:01 (setting [3]) turned out to be 11.2 nM.
For IKTTAKEVAL, in the assay with HLA-B*08:01 (setting [3]), the Kd was found to be 4460 nM.
On to NMLRIMASL, for which the dissociation constant (Kd) in the assay with HLA-A*01:01 was ≥ 26300 nM; with HLA-A*02:02, 3.4 nM; in the assay with HLA-A*02:03, 37.5 nM; with HLA-A*02:06 it was 50 nM; with HLA-A*23:01, 10900 nM; in the assay with HLA-A*24:02, ≥ 32200 nM. The Kd with HLA-A*26:01 was 18200 nM; with HLA-A*29:02 it was ≥ 36900 nM; with HLA-A*30:02, ≥ 100000 nM.
On to SLLFKTASG, for which the Kd with HLA-B*08:01 (source organism: Dengue virus 3 Martinique/1243/1999) is 534 nM.
As for SAEMRLLSI, the Kd in the assay with HLA-B*08:01 (setting [1]) is 20.5 nM.
As to LKEPCPSGTY, the Kd in the assay with HLA-A*01:01 was 14100 nM; with HLA-A*23:01, ≥ 70000 nM; in the assay with HLA-A*24:02, ≥ 70300 nM; with HLA-A*26:01, 5440 nM; with HLA-A*29:02 it was 1560 nM; in the assay with HLA-A*30:02, 69.8 nM.
